Assay [1] has as its target human Kv1.3 protein on cells (human, UniProt P22001 1-575). Description: cell-based or functional assay.
The target in assay [2] is human Kv1.3 protein with C-terminal FLAG and 10xHis tags (human) (UniProt P22001). Description: ELISA, supernatant, dilution 50.
For assay [3] the target is unchanged. Briefly: ELISA, supernatant, dilution 250. (In general: An ELISA detects its analyte on a solid surface through an enzyme-linked reagent.)
For assay [4] the target is unchanged. Briefly: ELISA, supernatant, dilution 1250.
Assay [5] shares this target. Description: ELISA, supernatant, dilution 6250.

Consider 2 molecules from patent publication US20190144538A1 (TETRAGENETICS, published 2019).

Sequence of human Kv1.3 protein with C-terminal FLAG and 10xHis tags (human) (P22001 other isoform, or with tags, fused parts or gaps): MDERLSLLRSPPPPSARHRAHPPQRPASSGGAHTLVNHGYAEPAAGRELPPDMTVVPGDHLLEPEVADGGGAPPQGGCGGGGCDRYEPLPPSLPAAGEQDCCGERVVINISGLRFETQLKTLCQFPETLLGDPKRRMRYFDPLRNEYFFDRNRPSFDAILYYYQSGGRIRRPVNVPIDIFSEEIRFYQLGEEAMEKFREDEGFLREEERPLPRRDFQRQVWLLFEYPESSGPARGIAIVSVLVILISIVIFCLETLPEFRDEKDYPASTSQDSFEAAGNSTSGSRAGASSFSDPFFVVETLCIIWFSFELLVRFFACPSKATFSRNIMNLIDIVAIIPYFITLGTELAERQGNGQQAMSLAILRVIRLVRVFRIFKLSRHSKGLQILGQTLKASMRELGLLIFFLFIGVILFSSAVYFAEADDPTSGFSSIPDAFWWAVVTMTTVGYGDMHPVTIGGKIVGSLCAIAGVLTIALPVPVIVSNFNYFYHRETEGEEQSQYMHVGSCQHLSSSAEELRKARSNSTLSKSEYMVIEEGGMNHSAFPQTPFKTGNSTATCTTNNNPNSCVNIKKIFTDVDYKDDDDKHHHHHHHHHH
Sequence of human Kv1.3 protein on cells (P22001 whole entry): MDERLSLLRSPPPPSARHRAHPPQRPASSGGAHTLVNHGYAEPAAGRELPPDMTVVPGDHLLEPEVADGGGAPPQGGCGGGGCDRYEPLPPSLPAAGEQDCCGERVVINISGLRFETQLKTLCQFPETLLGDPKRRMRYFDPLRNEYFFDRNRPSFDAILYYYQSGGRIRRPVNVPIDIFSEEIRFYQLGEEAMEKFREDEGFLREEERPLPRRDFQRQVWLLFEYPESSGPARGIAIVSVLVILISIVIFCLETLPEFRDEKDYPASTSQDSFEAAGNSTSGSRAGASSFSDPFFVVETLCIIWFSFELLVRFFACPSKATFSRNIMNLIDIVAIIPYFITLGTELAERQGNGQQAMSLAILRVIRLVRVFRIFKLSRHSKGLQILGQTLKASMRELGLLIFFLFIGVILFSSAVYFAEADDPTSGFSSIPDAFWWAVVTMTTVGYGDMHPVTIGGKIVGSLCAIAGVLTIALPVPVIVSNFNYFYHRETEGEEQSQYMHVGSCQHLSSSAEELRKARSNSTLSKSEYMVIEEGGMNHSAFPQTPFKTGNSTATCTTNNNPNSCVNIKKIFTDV

B1: 1A3 (Fc fusion, not shown: small tags and cut ends; a dimerising Fc or GST)
scFv (part 1 of 2): LDIQMTQSPSSVTASVGEKVTINCKSSQSVVSASNQKSYLNWYQQRPGQSPRLLIYYASTQELGIPDRFSGSGSTTDFTLTISSVQPEDAAVYYCQQAYSAPYNFGSGTRLEIK
scFv (part 2 of 2): QVQLQESGGGLVQPGGSLRLSCAASGFTFSINGMSWVRQAPGKEVEWVSSINSGGEITNYRDSVKGRFTISRDNVKNTLYLQMNSLKPEDTAFYHCVTGIVAYDYWGQGTQVTVSS
As for B1, the “IC50, dose-response of Kv1.3 current block (whole-cell patch clamp)” value in assay [1] was 109 nM.

B2: 19724p1.E6 (Fc fusion, not shown: small tags and cut ends; a dimerising Fc or GST)
scFv (part 1 of 2): ALTQPASVSANLGETVEITCSGGYSDDGSYYYGWYQQKSPGSAPVTVIYENNKRPSDIPSRFSGSLSGSTNTLTITGVRAEDEAVYYCGSWDSSAGIFGAGTTLTVL
scFv (part 2 of 2): MAAVTLDESGGGLQTPGGTLSLVCKASGFTFSSHGMQWVRQAPGKGLEWVAGISRDGSRTRYGAAVKGRATISRDNGQSTVRLQLNNLRAEDTAIYFCAKSAYECDGYSCWTFIAGSIDAWGHGTEVIVS
Regarding B2, the “IC50, dose-response of Kv1.3 current block (whole-cell patch clamp)” value in assay [1] was determined as 6 nM. In addition, the ELISA signal in assay [2] is 0.077; in assay [3] it was 0.074; in assay [4], 0.077; in assay [5], 0.084.
